Results as given in the MegaScale stability set (Tsuboyama et al. 2023).

B1: 2M8U (parent)
chain: TKAQVIEAFKVFDRDGNGYVTVDYLRKVLNELGDMMPADEIEEMIYEADPQNSGYVQYETFVGMLFL

Variants of: B1
Experiment: folding stability dG (cDNA display proteolysis); higher = more stable
Details: PBS, room temperature

Folding stability dG [kcal/mol]: each site, then its substitutions
R14: A 3.65; G 3.35; L 3.75; D 3.5; Q 3.49; W 3.32; I 3.77; T 3.81; S 3.58; Y 3.69; N 3.34; H 3.68; V 3.83; E 3.62; P 3.5; K 3.55; M 3.69; F 4.03; C 3.42
N17: G 2.96; P 1.86; D 3.44; V 3.27; Y 3; T 3.95; I 3.1; A 3.12; S 4.02; E 3.08; M 3.15; R 3.04; Q 3.12; W 2.95; L 3.39; H 3.03; C 2.99; K 3.01; F 3.06
V20: G 1.83; Y 1.85; Q 2.15; H 1.98; F 2.47; E 2.16; M 2.59; R 2.18; N 2.76; C 3.04; I 3.62; A 2.73; D 2.73; W 2.96; T 3.33; P 2.1; L 2.9; S 2.45; K 1.46
F12: W 3.32; Y 3.71
T21: C 3.42; G 3.51; I 2.89; E 3.65; M 3.4; K 3.47; F 3.29; H 4.14; P 3.46; D 3.16; L 3.55; N 3.24; A 3.65
G16: A 2.96; Y 2.49; K 3.04; C 2.92; E 2.93; P 2.11; F 2.75; N 3.36; W 2.29; Q 3.25; R 2.65; D 3.28; L 2.97; H 2.95; V 2.42; I 2.21; M 3.04; T 2.43; S 3.03
Y19: T 3.29; L 3.26; F 3.66; D 2.21; K 3.07; N 2.75; H 2.94; C 2.74; I 3.21; Q 2.91; S 2.9; W 3.21; P 1.9; E 2.63; G 1.95; V 3.05; R 2.76; M 3.3; A 2.7
G18: T 2.38; Q 2.3; Y 2.36; F 2.65; D 2.28; W 2.68; V 2.61; M 2.62; E 2.38; P 2.71; L 2.92; N 2.23; R 2.06; A 2.63; I 2.57; S 2.42; H 2.17; K 2.53; C 2.87
D15: E 3.55; K 2.32; R 1.81; N 2.97; Q 3.02; W 2.76; Y 2.96; F 2.79; P 2.51; V 2.94; L 3.17; G 2.75; I 3.02; T 2.97; S 2.84; M 3.03; A 3.13; H 2.69; C 2.9
D13: H 1.95; P 1.49; I 2.4; E 2.11; V 2.3; A 1.97; G 1.79; C 3.16; M 2.39; L 2.6; S 1.57; T 2.06; Y 2.29; F 2.65; Q 1.87; K 1.39; R 1.21; N 1.76; W 2.7
